Reference: the supplement of paper PMC7877785
± gives the uncertainty stated by the source.

Assay: self-splicing fitness, log relative to wild type (ln ratio); higher = more splicing; Tetrahymena group I intron in knt gene, E. coli kanamycin selection, DiMSum; sequences stand for … in CUCUCU…GGAGGGAAAAGUUAUCAGGCAUGCACCUGGUAGCUAGUCUUUAAACCAAUAGAUUGCAUCGGUUUAAAAGGCAAGACCGUCAAAUUGCGGGAAAGGGGUCAACAGCCGUUCAGUACCAAGUCUCAGGGGAAACUUUGAGAUGGCCUUGCAAAGGGUAUGGUAAUAAGCUGACGGACAUGGUCCUAACCACGCAGCCAAGUCCUAAGUCAACAGAUCUUCUGUUGAUAUGGAUGCAGUUCACAGACUAAAUGUCGGUCGGGGAAGAUGUAUUCUUCUCAUAAGAUAUAGUCGGACCUCUCCUUAAUGGGAGCUAGCGGAUGAAGUGAUGCAACACUGGAGCCGCUGGGAACUAAUUUGUAUGCGAAAGUAUAUUGAUUAGUUUUGGAGUACUCGUGGUCG
In short: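 Colonies from six replicate transformations of E. coli BL21(DE3) were pooled and amplicon-sequenced on an Illumina HiSeq 2500. The library placed an intron with all eight P1ex-region nucleotides randomised inside the knt kanamycin-resistance gene on pET-22b(+), and cells grew overnight at 37°C or 30°C on LB agar with or without 25 μg/mL kanamycin (plus 100 μg/mL carbenicillin, 50 μM IPTG, 0.2% rhamnose). Fitness is the DiMSum error-weighted combination of wild-type-normalised replicate fold changes, kanamycin versus none.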

| Sequence | self-splicing fitness (ln) (30 °C) | self-splicing fitness (ln) (37 °C) |
| --- | --- | --- |
| CGCCAGCAAUAUUACGUAGA | -1.25 ± 0.086 | -1.18 ± 0.13 |
| CGCCAGCAAUAUUACGUCAA | -2.51 ± 0.17 | -2.32 ± 0.17 |
| CGCCAGCAAUAUUACGUCAU | -4.39 ± 0.19 | -3.12 ± 0.18 |
| CGCCAGCAAUAUUACGUCUC | -4.51 ± 0.23 | -2.45 ± 0.16 |
| CGCCAGCAAUAUUACGUGAC | -3.64 ± 0.32 | -2.96 ± 0.33 |
| CGCCAGCAAUAUUACGUGCC | -1.13 ± 0.091 | -0.673 ± 0.11 |
| CGCGAGCAAUAUUACGACCU | -0.582 ± 0.16 | -1.81 ± 0.21 |
| CGCGAGCAAUAUUACGAUCU | -3.42 ± 0.21 | -1.66 ± 0.14 |
| CGCGAGCAAUAUUACGCCAG | -2.74 ± 0.18 | -2.75 ± 0.24 |
| CGCGAGCAAUAUUACGCCCU | -3.1 ± 0.29 | -2.5 ± 0.39 |
| CGCGAGCAAUAUUACGCGUC | -3.67 ± 0.28 | -2.68 ± 0.22 |
| CGCGAGCAAUAUUACGGACG | – | -1.75 ± 0.42 |
| CGCGAGCAAUAUUACGGCAG | -0.761 ± 0.1 | -0.243 ± 0.13 |
| CGCGAGCAAUAUUACGGCUG | -0.795 ± 0.094 | -0.637 ± 0.13 |
| CGCGAGCAAUAUUACGGGGG | -3.45 ± 0.38 | -3.07 ± 0.32 |
| CGCGAGCAAUAUUACGUACC | – | -2.69 ± 0.35 |
| CGCGAGCAAUAUUACGUCGA | -4.28 ± 0.46 | -2.73 ± 0.24 |
| CGCGAGCAAUAUUACGUCUA | -1.42 ± 0.17 | -0.973 ± 0.26 |
| CGCGAGCAAUAUUACGUGCU | -2.71 ± 0.14 | -2 ± 0.22 |
| CGCGAGCAAUAUUACGUGGC | -2.53 ± 0.18 | -2.16 ± 0.18 |
| CGCGAGCAAUAUUACGUUAA | -3.18 ± 0.16 | -4.09 ± 0.36 |
| CGCUAGCAAUAUUACGAAAA | -1.65 ± 0.16 | -1.98 ± 0.15 |
| CGCUAGCAAUAUUACGAAUA | -2.58 ± 0.19 | -2.57 ± 0.23 |
| CGCUAGCAAUAUUACGAUGA | -1.14 ± 0.1 | -0.401 ± 0.087 |
| CGCUAGCAAUAUUACGCCAU | -3.62 ± 0.3 | -1.27 ± 0.27 |

| Sequence | self-splicing fitness (ln) (30 °C) | self-splicing fitness (ln) (37 °C) |
| --- | --- | --- |
| CGCUAGCAAUAUUACGCUAC | – | -2.29 ± 0.5 |
| CGCUAGCAAUAUUACGGACU | -0.928 ± 0.09 | -1.08 ± 0.12 |
| CGCUAGCAAUAUUACGGCCG | -1.19 ± 0.17 | -1.11 ± 0.14 |
| CGCUAGCAAUAUUACGGCUU | -0.961 ± 0.081 | -0.559 ± 0.1 |
| CGCUAGCAAUAUUACGGGAC | – | -2.63 ± 0.22 |
| CGCUAGCAAUAUUACGGGAG | -2.79 ± 0.1 | -1.43 ± 0.082 |
| CGCUAGCAAUAUUACGGUGG | -1.71 ± 0.12 | -2.3 ± 0.17 |
| CGGAAGCAAUAUUACGAAUU | -3.28 ± 0.36 | -2.77 ± 0.44 |
| CGGAAGCAAUAUUACGACCC | -0.496 ± 0.27 | -0.781 ± 0.33 |
| CGGAAGCAAUAUUACGAGAU | – | -2.18 ± 0.33 |
| CGGAAGCAAUAUUACGAGGG | -0.374 ± 0.41 | – |
| CGGAAGCAAUAUUACGAUGG | -0.404 ± 0.096 | 0.233 ± 0.13 |
| CGGAAGCAAUAUUACGCCGC | -2.96 ± 0.28 | -2.51 ± 0.35 |
| CGGAAGCAAUAUUACGGCGC | -1.89 ± 0.37 | -0.448 ± 0.28 |
| CGGAAGCAAUAUUACGGGAA | -3.16 ± 0.46 | -2.3 ± 0.28 |
| CGGAAGCAAUAUUACGGGGG | -3.72 ± 0.13 | -3.16 ± 0.13 |
| CGGAAGCAAUAUUACGGUCA | -0.599 ± 0.078 | 0.421 ± 0.08 |
| CGGAAGCAAUAUUACGGUCG | -1.55 ± 0.099 | -0.978 ± 0.12 |
| CGGAAGCAAUAUUACGGUGU | -3.77 ± 0.18 | -2.1 ± 0.12 |
| CGGAAGCAAUAUUACGGUUA | -1.96 ± 0.18 | -2.25 ± 0.2 |
| CGGAAGCAAUAUUACGGUUC | -3.49 ± 0.3 | -2.85 ± 0.25 |
| CGGAAGCAAUAUUACGGUUU | -4.42 ± 0.36 | -3.88 ± 0.31 |
| CGGAAGCAAUAUUACGUCGG | -0.77 ± 0.064 | 0.0281 ± 0.099 |
| CGGAAGCAAUAUUACGUGAA | -3.4 ± 0.17 | -1.66 ± 0.15 |
| CGGAAGCAAUAUUACGUGAG | -0.991 ± 0.058 | -0.391 ± 0.085 |
